The values below come from PMC7921410, “Structure of mammalian Mediator complex reveals Tail module architecture and interaction with a conserved core” (Nature Communications, 2021).

Common to all, as to assay: cryo-EM structure; endogenous mouse Mediator immunopurified from CH12 nuclear extract through 3×FLAG-MED19 or 3×FLAG-MED25; eluted in 50 mM HEPES pH 7.9, 100 mM KCl, 5% glycerol, 1 mM EDTA, 0.005% NP-40; map at 4.0 Å overall, focused refinement of the MED1 and knob/hook ends (6-10 Å)
Conditions in all cases: both partners purified

One experiment has as its target T1, MED1 (mouse (Mus musculus; endogenous in CH12), UniProt Q925J9 1-1575).
T1 construct: MED1, Mus musculus, endogenous Middle module subunit of Mediator; only a partial model of the folded N-terminal portion was built; Partial model only; this part of the map is at about 6-8 Å; also called Mediator subunit MED1; source: endogenous, CH12 mouse B lymphoma nuclear extract; immunopurified as part of Mediator (FLAG M2 agarose, FLAG peptide elution)

The target in a further experiment is T2, MED4 (mouse (Mus musculus; endogenous in CH12), UniProt Q9CQA5 1-270).
T2 construct: MED4, Mus musculus, endogenous Middle module subunit of Mediator; source: endogenous, CH12 mouse B lymphoma nuclear extract; immunopurified as part of Mediator (FLAG M2 agarose, FLAG peptide elution)
T2 sequence (looked up): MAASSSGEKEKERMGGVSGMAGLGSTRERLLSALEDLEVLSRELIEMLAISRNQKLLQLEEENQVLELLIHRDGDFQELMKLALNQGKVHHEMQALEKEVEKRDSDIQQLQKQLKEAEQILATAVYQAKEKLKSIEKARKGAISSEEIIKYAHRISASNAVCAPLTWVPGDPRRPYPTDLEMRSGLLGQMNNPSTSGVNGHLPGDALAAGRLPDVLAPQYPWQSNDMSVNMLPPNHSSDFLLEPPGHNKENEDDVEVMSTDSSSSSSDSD

A further experiment has as its target T3, MED7 (mouse (Mus musculus; endogenous in CH12), UniProt Q9CZB6 1-233).
T3 construct: MED7, Mus musculus, endogenous Middle module subunit of Mediator; source: endogenous, CH12 mouse B lymphoma nuclear extract; immunopurified as part of Mediator (FLAG M2 agarose, FLAG peptide elution)
T3 sequence (looked up): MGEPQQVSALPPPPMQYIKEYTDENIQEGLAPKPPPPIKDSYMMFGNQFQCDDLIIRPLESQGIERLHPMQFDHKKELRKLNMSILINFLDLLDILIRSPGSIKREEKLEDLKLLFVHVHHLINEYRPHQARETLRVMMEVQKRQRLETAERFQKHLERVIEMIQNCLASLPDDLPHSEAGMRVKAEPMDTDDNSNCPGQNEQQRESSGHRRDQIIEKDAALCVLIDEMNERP

The target in another experiment is T4, MED17 (mouse (Mus musculus; endogenous in CH12), UniProt Q8VCD5 1-649).
T4 construct: MED17, Mus musculus, endogenous Head module scaffold subunit of Mediator; source: endogenous, CH12 mouse B lymphoma nuclear extract; immunopurified as part of Mediator (FLAG M2 agarose, FLAG peptide elution)
T4 sequence (looked up): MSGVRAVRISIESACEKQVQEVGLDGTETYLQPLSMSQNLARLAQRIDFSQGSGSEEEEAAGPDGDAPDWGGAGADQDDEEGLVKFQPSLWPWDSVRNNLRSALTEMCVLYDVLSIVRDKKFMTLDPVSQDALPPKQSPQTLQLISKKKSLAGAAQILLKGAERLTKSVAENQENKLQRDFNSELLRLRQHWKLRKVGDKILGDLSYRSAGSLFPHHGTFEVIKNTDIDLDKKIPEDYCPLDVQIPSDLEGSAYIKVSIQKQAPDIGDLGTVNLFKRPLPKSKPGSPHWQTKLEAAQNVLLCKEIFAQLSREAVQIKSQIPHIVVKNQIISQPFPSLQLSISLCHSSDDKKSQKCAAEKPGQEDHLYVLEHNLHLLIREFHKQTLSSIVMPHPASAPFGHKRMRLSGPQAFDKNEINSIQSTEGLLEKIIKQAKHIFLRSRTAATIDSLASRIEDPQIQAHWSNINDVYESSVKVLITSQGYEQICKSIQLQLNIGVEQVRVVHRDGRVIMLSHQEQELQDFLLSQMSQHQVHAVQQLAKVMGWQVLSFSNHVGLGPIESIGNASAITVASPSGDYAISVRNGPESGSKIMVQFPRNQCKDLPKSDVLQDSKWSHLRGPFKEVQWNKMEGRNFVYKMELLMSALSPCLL

Another experiment addresses T5, MED27 (mouse (Mus musculus; endogenous in CH12), UniProt Q9DB40 1-311).
T5 construct: MED27, Mus musculus, endogenous upper Tail subunit of Mediator; source: endogenous, CH12 mouse B lymphoma nuclear extract; immunopurified as part of Mediator (FLAG M2 agarose, FLAG peptide elution)
T5 sequence (looked up): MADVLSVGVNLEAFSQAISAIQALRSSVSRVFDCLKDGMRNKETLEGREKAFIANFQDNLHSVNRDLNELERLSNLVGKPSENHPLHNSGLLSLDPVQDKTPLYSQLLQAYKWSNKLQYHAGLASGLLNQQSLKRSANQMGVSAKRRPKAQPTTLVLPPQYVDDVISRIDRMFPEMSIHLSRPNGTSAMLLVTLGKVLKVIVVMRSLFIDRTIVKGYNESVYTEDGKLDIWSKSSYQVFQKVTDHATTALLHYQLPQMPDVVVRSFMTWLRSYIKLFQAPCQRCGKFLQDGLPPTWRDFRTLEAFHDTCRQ

Another experiment addresses T6, MED20 (mouse (Mus musculus; endogenous in CH12), UniProt Q9R0X0 1-212).
T6 construct: MED20, Mus musculus, endogenous Head module subunit of Mediator; source: endogenous, CH12 mouse B lymphoma nuclear extract; immunopurified as part of Mediator (FLAG M2 agarose, FLAG peptide elution)
T6 sequence (looked up): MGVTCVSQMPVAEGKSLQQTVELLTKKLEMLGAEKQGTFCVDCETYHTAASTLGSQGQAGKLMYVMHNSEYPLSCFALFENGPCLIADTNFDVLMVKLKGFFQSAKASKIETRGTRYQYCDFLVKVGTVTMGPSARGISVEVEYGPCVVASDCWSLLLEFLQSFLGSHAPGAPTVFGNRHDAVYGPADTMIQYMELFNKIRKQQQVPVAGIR

T1 sequence (Q925J9 whole entry): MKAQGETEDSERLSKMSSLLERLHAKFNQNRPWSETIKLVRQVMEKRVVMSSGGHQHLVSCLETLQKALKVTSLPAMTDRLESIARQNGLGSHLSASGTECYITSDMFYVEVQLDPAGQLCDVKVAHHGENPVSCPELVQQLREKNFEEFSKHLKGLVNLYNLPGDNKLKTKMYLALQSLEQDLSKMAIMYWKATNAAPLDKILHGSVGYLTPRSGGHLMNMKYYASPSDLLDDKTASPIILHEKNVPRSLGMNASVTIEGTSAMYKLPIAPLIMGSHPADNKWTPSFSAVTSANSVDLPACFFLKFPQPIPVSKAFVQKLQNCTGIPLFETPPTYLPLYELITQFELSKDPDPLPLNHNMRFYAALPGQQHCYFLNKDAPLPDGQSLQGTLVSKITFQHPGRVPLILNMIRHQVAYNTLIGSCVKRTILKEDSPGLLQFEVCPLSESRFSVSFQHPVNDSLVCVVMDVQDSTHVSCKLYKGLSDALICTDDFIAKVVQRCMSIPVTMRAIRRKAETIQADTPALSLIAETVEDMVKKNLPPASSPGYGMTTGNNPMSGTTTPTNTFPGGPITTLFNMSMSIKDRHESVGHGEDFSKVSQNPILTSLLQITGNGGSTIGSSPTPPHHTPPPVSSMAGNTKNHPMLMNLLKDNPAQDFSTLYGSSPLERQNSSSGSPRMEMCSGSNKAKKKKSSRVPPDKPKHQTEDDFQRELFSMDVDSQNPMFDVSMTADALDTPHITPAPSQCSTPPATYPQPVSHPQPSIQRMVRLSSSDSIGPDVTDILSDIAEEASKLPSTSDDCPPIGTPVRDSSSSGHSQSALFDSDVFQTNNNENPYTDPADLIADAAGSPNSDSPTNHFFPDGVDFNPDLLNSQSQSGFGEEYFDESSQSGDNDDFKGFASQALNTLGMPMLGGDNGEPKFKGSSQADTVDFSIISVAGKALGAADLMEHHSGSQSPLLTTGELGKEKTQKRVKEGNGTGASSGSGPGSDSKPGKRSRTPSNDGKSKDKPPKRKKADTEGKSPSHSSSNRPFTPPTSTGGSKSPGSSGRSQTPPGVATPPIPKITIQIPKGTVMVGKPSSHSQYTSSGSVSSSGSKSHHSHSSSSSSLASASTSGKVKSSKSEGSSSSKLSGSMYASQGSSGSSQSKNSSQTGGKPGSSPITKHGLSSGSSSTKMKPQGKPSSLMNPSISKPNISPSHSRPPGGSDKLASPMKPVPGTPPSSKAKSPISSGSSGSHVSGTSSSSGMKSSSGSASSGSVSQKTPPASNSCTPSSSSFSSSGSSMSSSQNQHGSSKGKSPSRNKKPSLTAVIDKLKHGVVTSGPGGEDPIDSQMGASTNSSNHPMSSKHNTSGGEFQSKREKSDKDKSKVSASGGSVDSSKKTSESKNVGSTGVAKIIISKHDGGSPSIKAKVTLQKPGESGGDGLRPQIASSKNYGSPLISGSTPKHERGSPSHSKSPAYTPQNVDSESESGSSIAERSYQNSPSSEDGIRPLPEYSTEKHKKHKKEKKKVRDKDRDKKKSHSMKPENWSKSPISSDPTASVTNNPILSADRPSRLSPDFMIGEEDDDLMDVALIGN

B1: MED9 (natural protein, mouse (Mus musculus; endogenous in CH12), UniProt Q8VCS6 1-142, looked up)
chain: MASSGVAGGRQAEDTLQPPPELLPESKPPPPPQPLPVAALPPPAAPRPQSPAGAKEENYSFLPLVHNVIKCMDKDSPDLHQDLNALKTKFQELRKLIGTMPGIHVSPEQQQQQLHSLREQVRTKNELLQKYKSLCMFEIPKD
notes: MED9, Mus musculus, endogenous Middle module subunit of Mediator; source: endogenous, CH12 mouse B lymphoma nuclear extract; immunopurified as part of Mediator (FLAG M2 agarose, FLAG peptide elution)
Consider B1, for which the binding result with MED1 and in the experiment with MED4 was “binds” in each case.

B2: MED21 (natural protein, mouse (Mus musculus; endogenous in CH12), UniProt Q9CQ39 1-144, looked up)
chain: MADRLTQLQDAVNSLADQFCNAIGVLQQCGPPASFSNIQTAINKDQPANPTEEYAQLFAALIARTAKDIDVLIDSLPSEESTAALQAASLYKLEEENHEAATCLEDVVYRGDMLLEKIQSALADIAQSQLKTRSVTHSHSLPDS
notes: MED21, Mus musculus, endogenous Middle module subunit of Mediator; source: endogenous, CH12 mouse B lymphoma nuclear extract; immunopurified as part of Mediator (FLAG M2 agarose, FLAG peptide elution)
In the case of B2, the binding result in the experiment with MED7 was “binds”.

B3: MED18 (natural protein, mouse (Mus musculus; endogenous in CH12), UniProt Q9CZ82 1-208, looked up)
chain: MEAPPVTMMPVTGGTINMMEYLLQGSVLDHSLESLIHRLRGLCDNMEPETFLDHEMVFLLKGQQASPFVLRARRSMDRAGAPWHLRYLGQPEMGDKNRHALVRNCVDIATSENLTDFLMEMGFRMDHEFVAKGHLFRKGIMKVVVYKIFRILVPGNTDSTEALSLSYLVELSVVAPAGQDMVSDDMRNFAEQLKPLVHLEKIDPKRLM
notes: MED18, Mus musculus, endogenous Head module subunit of Mediator; source: endogenous, CH12 mouse B lymphoma nuclear extract; immunopurified as part of Mediator (FLAG M2 agarose, FLAG peptide elution)
For the molecule B3, the binding result in the experiment with MED17, with MED27 and with MED20 was “binds” throughout.
